T1: G9a and GLP (Homo sapiens, UniProt Q96KQ7+Q9H9B1)
T1 sequence (Q96KQ7 2-1210 limits assumed): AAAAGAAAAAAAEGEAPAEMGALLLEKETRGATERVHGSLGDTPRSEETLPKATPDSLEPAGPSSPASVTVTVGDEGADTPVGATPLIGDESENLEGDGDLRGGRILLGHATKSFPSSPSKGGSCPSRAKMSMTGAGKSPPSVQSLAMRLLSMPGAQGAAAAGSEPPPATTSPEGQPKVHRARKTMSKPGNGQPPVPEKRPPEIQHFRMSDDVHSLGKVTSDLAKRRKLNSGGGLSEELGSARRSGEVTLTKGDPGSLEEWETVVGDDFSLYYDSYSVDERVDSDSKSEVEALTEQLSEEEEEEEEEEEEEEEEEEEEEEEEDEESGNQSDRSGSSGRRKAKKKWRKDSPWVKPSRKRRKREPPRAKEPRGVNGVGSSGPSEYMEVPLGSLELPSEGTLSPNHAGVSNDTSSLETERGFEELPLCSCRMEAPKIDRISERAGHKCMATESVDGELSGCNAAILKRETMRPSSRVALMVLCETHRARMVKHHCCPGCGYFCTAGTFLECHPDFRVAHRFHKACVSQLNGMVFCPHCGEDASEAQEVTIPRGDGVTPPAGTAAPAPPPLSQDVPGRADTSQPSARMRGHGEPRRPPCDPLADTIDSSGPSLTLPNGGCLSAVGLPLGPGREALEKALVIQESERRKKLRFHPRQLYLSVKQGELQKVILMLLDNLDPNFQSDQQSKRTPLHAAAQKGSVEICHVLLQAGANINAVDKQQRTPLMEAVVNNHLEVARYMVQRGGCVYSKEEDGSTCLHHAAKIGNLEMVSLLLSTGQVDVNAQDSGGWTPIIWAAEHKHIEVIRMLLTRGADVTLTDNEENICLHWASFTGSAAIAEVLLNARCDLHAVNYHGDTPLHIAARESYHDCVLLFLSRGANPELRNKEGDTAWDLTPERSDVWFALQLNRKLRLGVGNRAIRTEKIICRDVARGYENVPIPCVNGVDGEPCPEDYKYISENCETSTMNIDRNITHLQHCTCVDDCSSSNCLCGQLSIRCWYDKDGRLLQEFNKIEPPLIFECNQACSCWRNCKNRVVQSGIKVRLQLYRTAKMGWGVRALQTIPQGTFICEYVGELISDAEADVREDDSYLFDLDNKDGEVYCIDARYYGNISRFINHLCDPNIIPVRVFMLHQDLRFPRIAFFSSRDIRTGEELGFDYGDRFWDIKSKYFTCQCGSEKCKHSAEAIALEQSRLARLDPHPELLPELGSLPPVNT
T1 sequence (Q9H9B1 2-1298 limits assumed): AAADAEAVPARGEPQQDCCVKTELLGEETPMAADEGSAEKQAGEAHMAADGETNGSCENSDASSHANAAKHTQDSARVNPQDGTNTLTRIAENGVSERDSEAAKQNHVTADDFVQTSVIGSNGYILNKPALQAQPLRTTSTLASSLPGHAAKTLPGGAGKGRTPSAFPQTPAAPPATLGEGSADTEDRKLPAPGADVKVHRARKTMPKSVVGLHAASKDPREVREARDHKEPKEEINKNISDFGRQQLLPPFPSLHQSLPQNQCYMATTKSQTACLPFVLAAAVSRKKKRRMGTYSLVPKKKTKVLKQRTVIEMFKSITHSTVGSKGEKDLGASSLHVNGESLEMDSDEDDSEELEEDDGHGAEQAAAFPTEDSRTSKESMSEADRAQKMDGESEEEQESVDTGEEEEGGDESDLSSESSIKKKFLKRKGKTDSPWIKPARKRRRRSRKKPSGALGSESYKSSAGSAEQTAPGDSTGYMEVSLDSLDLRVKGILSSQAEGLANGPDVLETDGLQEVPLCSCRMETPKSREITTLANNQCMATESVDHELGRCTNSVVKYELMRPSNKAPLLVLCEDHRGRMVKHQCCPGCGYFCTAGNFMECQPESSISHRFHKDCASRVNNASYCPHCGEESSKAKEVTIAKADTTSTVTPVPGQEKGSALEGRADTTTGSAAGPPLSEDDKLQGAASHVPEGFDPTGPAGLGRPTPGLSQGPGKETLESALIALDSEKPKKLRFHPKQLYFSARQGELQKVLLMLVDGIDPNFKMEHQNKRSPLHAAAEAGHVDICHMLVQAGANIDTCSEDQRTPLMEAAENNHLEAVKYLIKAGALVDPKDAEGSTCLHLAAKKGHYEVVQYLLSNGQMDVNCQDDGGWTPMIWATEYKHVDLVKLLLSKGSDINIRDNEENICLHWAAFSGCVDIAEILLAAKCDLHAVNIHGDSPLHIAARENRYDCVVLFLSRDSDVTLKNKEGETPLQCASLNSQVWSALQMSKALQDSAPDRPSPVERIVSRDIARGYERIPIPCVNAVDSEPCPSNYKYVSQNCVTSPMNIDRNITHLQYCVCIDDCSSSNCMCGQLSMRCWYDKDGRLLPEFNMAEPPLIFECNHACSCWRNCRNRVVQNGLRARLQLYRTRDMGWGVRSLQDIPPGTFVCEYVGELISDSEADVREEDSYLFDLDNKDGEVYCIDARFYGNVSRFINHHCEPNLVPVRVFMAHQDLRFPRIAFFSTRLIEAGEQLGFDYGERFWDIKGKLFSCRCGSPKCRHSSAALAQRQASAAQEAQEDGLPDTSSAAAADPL


Legend:
3×MBT domain of L3MBTL1 = test: Triple SILAC pull-down, 3xMBT/3xMBTD355N ratio (cytoplasmic, nuclear and chromatin fractions of 293T cells); format: binding, human; details: SILAC ratio, pull-down 3xMBT vs 3xMBTD355N; for 3xMBT/D355N UNC Heavy: experiment with UNC0638 in heavy SILAC media; for 3xMBT/D355N UNC Light: experiment with UNC0638 in light SILAC media;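 for all read-outs here: proteins quantified with MaxQuant, requiring at least two unique peptides and quantification in both label directions, normalized to the mean of proteins from a digested loading control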
G9a and GLP = target: T1, G9a and GLP; test: Triple SILAC pull-down after UNC0638 treatment of 293T cells, DMSO/UNC0638 ratio of protein captured by 3×MBT; format: cell-based; design: cells were treated for 24 hours with UNC0638 at 2.5 μM or DMSO vehicle control; endogenous in cells; host or cells: HEK 293T; details: for Relative to UNC0638 UNC Heavy / Relative to UNC0638 UNC Light: SILAC ratio DMSO/UNC0638 of protein pulled down with 3xMBT; for Relative to UNC0638 UNC Heavy: UNC0638 in heavy SILAC media; for Relative to UNC0638 UNC Light: UNC0638 in light SILAC media; for Relative to UNC0638 Average: average of UNC Light and UNC Heavy experiments;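 for all read-outs here: mass spectrometry (Q-Exactive) SILAC quantitation, DMSO/UNC0638 ratio computed after subtracting 3×MBTD355N mutant pull-down background, only proteins with at least twofold 3×MBT over mutant signal considered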

Row | Relative to UNC0638 UNC Heavy (G9a and GLP) | Relative to UNC0638 UNC Light (G9a and GLP) | Relative to UNC0638 Average (G9a and GLP) | Molecule | 3xMBT/D355N UNC Heavy (3×MBT domain of L3MBTL1) | 3xMBT/D355N UNC Light (3×MBT domain of L3MBTL1)
1 | 0.06 log base 2 | 0.31 log base 2 | 0.18 log base 2 | SF3B3 (protein, UniProt Q15393 1-1217, looked up) Splicing factor 3B subunit 3: MFLYNLTLQRATGISFAIHGNFSGTKQQEIVVSRGKILELLRPDPNTGKVHTLLTVEVFGVIRSLMAFRLTGGTKDYIVVGSDSGRIVILEYQPSKNMFEKIHQETFGKSGCRRIVPGQFLAVDPKGRAVMISAIEKQKLVYILNRDAAARLTISSPLEAHKANTLVYHVVGVDVGFENPMFACLEMDYEEADNDPTGEAAANTQQTLTFYELDLGLNHVVRKYSEPLEEHGNFLITVPGGSDGPSGVLICSENYITYKNFGDQPDIRCPIPRRRNDLDDPERGMIFVCSATHKTKSMFFFLAQTEQGDIFKITLETDEDMVTEIRLKYFDTVPVAAAMCVLKTGFLFVASEFGNHYLYQIAHLGDDDEEPEFSSAMPLEEGDTFFFQPRPLKNLVLVDELDSLSPILFCQIADLANEDTPQLYVACGRGPRSSLRVLRHGLEVSEMAVSELPGNPNAVWTVRRHIEDEFDAYIIVSFVNATLVLSIGETVEEVTDSGFLGTTPTLSCSLLGDDALVQVYPDGIRHIRADKRVNEWKTPGKKTIVKCAVNQRQVVIALTGGELVYFEMDPSGQLNEYTERKEMSADVVCMSLANVPPGEQRSRFLAVGLVDNTVRIISLDPSDCLQPLSMQALPAQPESLCIVEMGGTEKQDELGERGSIGFLYLNIGLQNGVLLRTVLDPVTGDLSDTRTRYLGSRPVKLFRVRMQGQEAVLAMSSRSWLSYSYQSRFHLTPLSYETLEFASGFASEQCPEGIVAISTNTLRILALEKLGAVFNQVAFPLQYTPRKFVIHPESNNLIIIETDHNAYTEATKAQRKQQMAEEMVEAAGEDERELAAEMAAAFLNENLPESIFGAPKAGNGQWASVIRVMNPIQGNTLDLVQLEQNEAAFSVAVCRFSNTGEDWYVLVGVAKDLILNPRSVAGGFVYTYKLVNNGEKLEFLHKTPVEEVPAAIAPFQGRVLIGVGKLLRVYDLGKKKLLRKCENKHIANYISGIQTIGHRVIVSDVQESFIWVRYKRNENQLIIFADDTYPRWVTTASLLDYDTVAGADKFGNICVVRLPPNTNDEVDEDPTGNKALWDRGLLNGASQKAEVIMNYHVGETVLSLQKTTLIPGGSESLVYTTLSGGIGILVPFTSHEDHDFFQHVEMHLRSEHPPLCGRDHLSFRSYYFPVKNVIDGDLCEQFNSMEPNKQKNVSEELDRTPPEVSKKLEDIRTRYAF | 2.48 log base 2 | 2.08 log base 2
2 | 0.28 log base 2 | 0.09 log base 2 | 0.18 log base 2 | MCM3 (protein, UniProt P25205 2-808, looked up) DNA replication licensing …: AGTVVLDDVELREAQRDYLDFLDDEEDQGIYQSKVRELISDNQYRLIVNVNDLRRKNEKRANRLLNNAFEELVAFQRALKDFVASIDATYAKQYEEFYVGLEGSFGSKHVSPRTLTSCFLSCVVCVEGIVTKCSLVRPKVVRSVHYCPATKKTIERRYSDLTTLVAFPSSSVYPTKDEENNPLETEYGLSVYKDHQTITIQEMPEKAPAGQLPRSVDVILDDDLVDKAKPGDRVQVVGTYRCLPGKKGGYTSGTFRTVLIACNVKQMSKDAQPSFSAEDIAKIKKFSKTRSKDIFDQLAKSLAPSIHGHDYVKKAILCLLLGGVERDLENGSHIRGDINILLIGDPSVAKSQLLRYVLCTAPRAIPTTGRGSSGVGLTAAVTTDQETGERRLEAGAMVLADRGVVCIDEFDKMSDMDRTAIHEVMEQGRVTIAKAGIHARLNARCSVLAAANPVYGRYDQYKTPMENIGLQDSLLSRFDLLFIMLDQMDPEQDREISDHVLRMHRYRAPGEQDGDAMPLGSAVDILATDDPNFSQEDQQDTQIYEKHDNLLHGTKKKKEKMVSAAFMKKYIHVAKIIKPVLTQESATYIAEEYSRLRSQDSMSSDTARTSPVTARTLETLIRLATAHAKARMSKTVDLQDAEEAVELVQYAYFKKVLEKEKKRKKRSEDESETEDEEEKSQEDQEQKRKRRKTRQPDAKDGDSYDPYDFSDTEEEMPQVHTPKTADSQETKESQKVELSESRLKAFKVALLDVFREAHAQSIGMNRLTESINRDSEEPFSSVEIQAALSKMQDDNQVMVSEGIIFLI | 2.59 log base 2 | 2.49 log base 2
3 | 0.20 log base 2 | 0.16 log base 2 | 0.18 log base 2 | HNRNPA3 (protein, UniProt P51991 1-378, looked up) Heterogeneous nuclear …: MEVKPPPGRPQPDSGRRRRRRGEEGHDPKEPEQLRKLFIGGLSFETTDDSLREHFEKWGTLTDCVVMRDPQTKRSRGFGFVTYSCVEEVDAAMCARPHKVDGRVVEPKRAVSREDSVKPGAHLTVKKIFVGGIKEDTEEYNLRDYFEKYGKIETIEVMEDRQSGKKRGFAFVTFDDHDTVDKIVVQKYHTINGHNCEVKKALSKQEMQSAGSQRGRGGGSGNFMGRGGNFGGGGGNFGRGGNFGGRGGYGGGGGGSRGSYGGGDGGYNGFGGDGGNYGGGPGYSSRGGYGGGGPGYGNQGGGYGGGGGYDGYNEGGNFGGGNYGGGGNYNDFGNYSGQQQSNYGPMKGGSFGGRSSGSPYGGGYGSGGGSGGYGSRRF | 2.96 log base 2 | 3.79 log base 2
4 | 2.48 log base 2 | −0.46 log base 2 | 1.01 log base 2 | C20orf43 (protein, UniProt Q9BY42 1-306, looked up) Replication termination …: MGCDGGTIPKRHELVKGPKKVEKVDKDAELVAQWNYCTLSQEILRRPIVACELGRLYNKDAVIEFLLDKSAEKALGKAASHIKSIKNVTELKLSDNPAWEGDKGNTKGDKHDDLQRARFICPVVGLEMNGRHRFCFLRCCGCVFSERALKEIKAEVCHTCGAAFQEDDVIMLNGTKEDVDVLKTRMEERRLRAKLEKKTKKPKAAESVSKPDVSEEAPGPSKVKTGKPEEASLDSREKKTNLAPKSTAMNESSSGKAGKPPCGATKRSIADSEESEAYKSLFTTHSSAKRSKEESAHWVTHTSYCF | 1.26 log base 2 | 0.71 log base 2
